Values of other authors as cited in patent publication US20250333489A1 (ANDREMACON S.R.L., priority 2021, published 2025).

Target: T1, EphB4 (Homo sapiens, UniProt P54760)
T1 sequence (P54760 16-987): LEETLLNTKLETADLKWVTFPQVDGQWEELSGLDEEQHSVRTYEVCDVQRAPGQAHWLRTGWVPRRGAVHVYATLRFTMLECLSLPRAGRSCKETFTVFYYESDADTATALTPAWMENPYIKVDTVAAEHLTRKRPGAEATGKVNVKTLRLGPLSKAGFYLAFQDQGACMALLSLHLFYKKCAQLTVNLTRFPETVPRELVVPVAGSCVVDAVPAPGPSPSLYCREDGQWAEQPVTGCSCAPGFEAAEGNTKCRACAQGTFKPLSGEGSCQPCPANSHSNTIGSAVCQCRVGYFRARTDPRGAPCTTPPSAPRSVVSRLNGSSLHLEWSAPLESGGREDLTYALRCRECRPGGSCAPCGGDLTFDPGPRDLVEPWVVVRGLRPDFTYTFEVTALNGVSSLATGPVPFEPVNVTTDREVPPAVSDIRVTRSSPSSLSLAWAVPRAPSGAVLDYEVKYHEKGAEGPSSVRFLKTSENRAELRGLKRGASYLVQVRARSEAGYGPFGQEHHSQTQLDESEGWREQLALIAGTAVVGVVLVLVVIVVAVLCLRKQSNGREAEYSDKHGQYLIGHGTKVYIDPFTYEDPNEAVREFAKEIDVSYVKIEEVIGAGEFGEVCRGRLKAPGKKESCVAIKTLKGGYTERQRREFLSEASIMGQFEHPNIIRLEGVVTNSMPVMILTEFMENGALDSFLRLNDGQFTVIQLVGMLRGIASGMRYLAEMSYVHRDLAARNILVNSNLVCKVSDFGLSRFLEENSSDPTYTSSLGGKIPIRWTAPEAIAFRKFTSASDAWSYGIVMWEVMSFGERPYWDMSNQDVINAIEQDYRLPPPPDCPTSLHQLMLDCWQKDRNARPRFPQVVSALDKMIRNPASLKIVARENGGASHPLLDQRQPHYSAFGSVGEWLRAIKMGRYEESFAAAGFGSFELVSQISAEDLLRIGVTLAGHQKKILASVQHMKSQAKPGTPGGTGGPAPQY
Details: read-out: binding affinity of Epo for EphB4 (KD)

**Q.** Which Kd does the source give for “Epo: 30.4 kDa glycoprotein produced and secreted mainly by the kidneys; main erythropoietic hormone” here?
**A.** 0.88 µM
